According to IntAct's records for PubMed 19732766:

B1: U3 small nucleolar RNA-associated protein 4 homolog (Homo sapiens), Q969X6 (parent)
chain: MGEFKVHRVRFFNYVPSGIRCVAYNNQSNRLAVSRTDGTVEIYNLSANYFQEKFFPGHESRATEALCWAEGQRLFSAGLNGEIMEYDLQALNIKYAMDAFGGPIWSMAASPSGSQLLVGCEDGSVKLFQITPDKIQFERNFDRQKSRILSLSWHPSGTHIAAGSIDYISVFDVKSGSAVHKMIVDRQYMGVSKRKCIVWGVAFLSDGTIISVDSAGKVQFWDSATGTLVKSHLIANADVQSIAVADQEDSFVVGTAEGTVFHFQLVPVTSNSSEKQWVRTKPFQHHTHDVRTVAHSPTALISGGTDTHLVFRPLMEKVEVKNYDAALRKITFPHRCLISCSKKRQLLLFQFAHHLELWRLGSTVATGKNGDTLPLSKNADHLLHLKTKGPENIICSCISPCGSWIAYSTVSRFFLYRLNYEHDNISLKRVSKMPAFLRSALQILFSEDSTKLFVASNQGALHIVQLSGGSFKHLHAFQPQSGTVEAMCLLAVSPDGNWLAASGTSAGVHVYNVKQLKLHCTVPAYNFPVTAMAIAPNTNNLVIAHSDQQVFEYSIPDKQYTDWSRTVQKQGFHHLWLQRDTPITHISFHPKRPMHILLHDAYMFCIIDKSLPLPNDKTLLYNPFPPTNESDVIRRRTAHAFKISKIYKPLLFMDLLDERTLVAVERPLDDIIAQLPPPIKKKKFGT

Variants of: B1
Conditions: with zep1_human HIVEP1, P15822

| effect of a mutation on the interaction | Variant |
| --- | --- |
| decreasing interaction | R565W |
